Experimental data from paper PMC5130295, “Structural basis for the disaggregase activity and regulation of Hsp104” (eLife, 2016).

Experiments:
[1] = biological target: CtHsp104 double Walker B mutant (Chaetomium thermophilum); assay: SEC; SEC profiles with elution volumes of marker proteins
CtHsp104 [2] = biological target: T1, CtHsp104 (Thermochaetoides thermophila, UniProt G0S4G4, D295A/E296A); assay: X-ray crystal structure, […] Å; format: binding; details: ADP bound in AAA1 and AAA2 active sites; incubated with ADP and AlF3, 3 mM each; pH 5.8
T1 construct: gene CTHT_0022720; full-length, synthetic gene, pET21a, C-terminal His6 tag, E. coli; NTD not visible in the crystal structure

CtHsp104 [3] = biological target: T2, CtHsp104 (Thermochaetoides thermophila, UniProt G0S4G4); assay: coupled ATPase assay (pyruvate kinase / lactate dehydrogenase); format: biochemical; details: 5 mM MgCl2; varying ATP; Hill fit
T2 construct: gene CTHT_0022720; full-length, synthetic gene, pET21a, C-terminal His6 tag, E. coli; NTD not visible in the crystal structure

ScHsp104 = biological target: T3, ScHsp104 (Saccharomyces cerevisiae, UniProt P31539); assay: as above; format: biochemical; details: 5 mM MgCl2; varying ATP; Hill fit
T3 construct: gene HSP104; cloned from yeast genomic DNA, pET21a, C-terminal His6 tag, E. coli

[4] = biological target: CtHsp104 catalytic inactive double Walker A mutant (Chaetomium thermophilum); assay: SEC; SEC profiles with elution volumes of marker proteins
[5] = biological target: Hsp104 disaggregase from Chaetomium thermophilum, wild type (Chaetomium thermophilum); assay: as above

T3 sequence (P31539 whole entry): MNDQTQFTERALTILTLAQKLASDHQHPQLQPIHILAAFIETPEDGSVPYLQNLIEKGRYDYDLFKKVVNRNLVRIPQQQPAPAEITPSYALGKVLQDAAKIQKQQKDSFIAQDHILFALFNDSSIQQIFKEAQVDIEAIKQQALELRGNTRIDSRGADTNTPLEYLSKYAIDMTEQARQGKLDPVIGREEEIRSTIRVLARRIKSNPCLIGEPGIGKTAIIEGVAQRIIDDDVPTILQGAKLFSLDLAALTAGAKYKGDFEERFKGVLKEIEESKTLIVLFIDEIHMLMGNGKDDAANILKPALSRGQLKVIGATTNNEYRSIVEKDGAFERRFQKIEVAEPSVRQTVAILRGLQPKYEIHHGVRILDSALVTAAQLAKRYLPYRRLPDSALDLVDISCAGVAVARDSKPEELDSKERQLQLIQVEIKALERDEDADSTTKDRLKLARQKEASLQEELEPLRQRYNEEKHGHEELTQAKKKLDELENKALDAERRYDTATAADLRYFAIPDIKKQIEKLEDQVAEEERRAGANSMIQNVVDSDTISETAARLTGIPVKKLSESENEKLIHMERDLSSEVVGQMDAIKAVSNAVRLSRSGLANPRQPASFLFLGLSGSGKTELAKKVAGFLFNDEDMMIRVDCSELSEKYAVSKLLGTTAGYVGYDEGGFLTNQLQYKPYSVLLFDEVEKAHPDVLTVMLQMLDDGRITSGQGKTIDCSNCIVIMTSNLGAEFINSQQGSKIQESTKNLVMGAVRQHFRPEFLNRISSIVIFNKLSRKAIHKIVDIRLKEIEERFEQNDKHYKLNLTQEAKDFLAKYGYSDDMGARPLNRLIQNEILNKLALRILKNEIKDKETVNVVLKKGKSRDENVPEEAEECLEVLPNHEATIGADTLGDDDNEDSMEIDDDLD
T2 sequence (G0S4G4 entry or part of it): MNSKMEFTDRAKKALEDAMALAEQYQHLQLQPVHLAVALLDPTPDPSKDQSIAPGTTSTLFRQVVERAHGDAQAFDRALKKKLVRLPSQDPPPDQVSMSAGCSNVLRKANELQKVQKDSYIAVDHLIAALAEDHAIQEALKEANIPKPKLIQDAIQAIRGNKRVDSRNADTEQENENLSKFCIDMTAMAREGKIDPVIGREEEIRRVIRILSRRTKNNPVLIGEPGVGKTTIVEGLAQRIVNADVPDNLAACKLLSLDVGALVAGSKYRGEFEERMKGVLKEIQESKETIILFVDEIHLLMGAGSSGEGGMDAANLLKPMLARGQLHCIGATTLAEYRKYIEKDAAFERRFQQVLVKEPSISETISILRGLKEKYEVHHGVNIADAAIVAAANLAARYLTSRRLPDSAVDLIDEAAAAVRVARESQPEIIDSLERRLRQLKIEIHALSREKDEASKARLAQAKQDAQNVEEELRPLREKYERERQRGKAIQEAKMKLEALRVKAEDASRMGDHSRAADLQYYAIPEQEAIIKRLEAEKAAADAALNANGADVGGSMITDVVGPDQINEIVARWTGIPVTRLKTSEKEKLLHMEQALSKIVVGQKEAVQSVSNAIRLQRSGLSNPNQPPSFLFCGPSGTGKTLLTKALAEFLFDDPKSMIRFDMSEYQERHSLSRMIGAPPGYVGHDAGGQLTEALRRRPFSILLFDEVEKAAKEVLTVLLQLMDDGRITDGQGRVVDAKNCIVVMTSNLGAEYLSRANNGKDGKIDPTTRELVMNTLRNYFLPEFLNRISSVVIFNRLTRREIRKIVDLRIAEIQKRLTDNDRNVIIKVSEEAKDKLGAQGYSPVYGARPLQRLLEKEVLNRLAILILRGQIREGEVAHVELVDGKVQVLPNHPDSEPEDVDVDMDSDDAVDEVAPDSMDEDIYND
T1 sequence (G0S4G4 entry or part of it D295A/E296A): as the sequence (G0S4G4 entry or part of it) above, with D295A, E296A counted along it

## CtHsp104 double Walker B mutant (natural protein)
[1]
  stoichiometry N: 6

## Nc1ncnc2c1ncn2[C@@H]1O[C@H](COP(=O)(O)OP(=O)(O)O)[C@@H](O)[C@H]1O [ADP]
CtHsp104 [2]
  X-ray crystal structure, 3.7 Å: The crystal structure of the double Walker-B mutant in complex with ADP was determined

## Nc1ncnc2c1ncn2[C@@H]1O[C@H](COP(=O)(O)OP(=O)(O)OP(=O)(O)O)[C@@H](O)[C@H]1O [ATP]
CtHsp104 [3]
  coupled ATPase assay (pyruvate kinase / lactate dehydrogenase): ATPase activity was determined by a coupled enzymatic reaction
ScHsp104
  coupled ATPase assay (pyruvate kinase / lactate dehydrogenase): ATPase and GFP unfolding activity of wt and ΔPS1 mutants of Ct and ScHsp104

## CtHsp104 catalytic inactive double Walker A mutant (natural protein)
[4]
  stoichiometry N: 6

## Hsp104 disaggregase from Chaetomium thermophilum, wild type (natural protein)
[5]
  stoichiometry N: 6
